According to patent US20170260272A1 (Novartis, published 2017):

What was measured:
[1] = molecular target: T1, APP-Avi-soluble human LOX-1(61-273) (human, UniProt P78380 61-273); experiment: competition ELISA: oxLDL binding to plate-bound biotinylated human sLOX-1
Description: NeutrAvidin 384 well plates were coated with 2.5 μg/ml biotinylated LOX-1 diluted in PBS. After blocking with 25% Block Ace (AbD Serotec, Cat#BUF029) in PBS, purified Fabs or IgGs diluted in PBS/1% BSA were added. Subsequently OxLDL (copper-sulfate oxidized LDL, Kalen Biomedical #770202) or MDA-LDL (Academy Biomedical, #20P-UMD-L102) ligand diluted in PBS/1% BSA were allowed to bind to coated LOX-1. Secondary antibody (HRP conjugated sheep anti ApoB IgG; The Binding Site) diluted 1:1,000 in PBS/1% BSA was added followed by addition of TMB substrate (Thermo Scientific). After 10 minutes 1M H2SO4 was added and absorbance was determined at 450 nm. During early screenings, Fab fragments were also tested in this oxLDL binding assay using Fab-containing crude E. coli lysates.
The ability of LOX-1 antibodies to inhibit oxLDL binding to LOX-1 protein was determined using the method described in Example 4. In addition to “high binding OxLDL” from Kalen Biomedical (catalog number 770212-7), which is generated by copper sulfate mediated oxidation of LDL, two other forms of modified LDL were tested in this assay: malondialdehyde modified LDL (Academy Bio-Medical Co. catalog number 20P-MD-L105) and hypochlorite modified LDL. Hypochlorite modified LDL was prepared according to the following procedure. Human LDL (Kalen Biomedical catalog number 770200-4) was diluted with PBS to a final concentration of 0.25 mg/mL. Sodium hypochlorite (NaOCI, JT Baker catalog number 9416-01) was then added to 0.1 mM final concentration. The solution was incubated at room temperate for 4 hours, then quenched by adding L-methionine to a final concentration of reaction by adding 5 μl of 100 mM Mehionine per 200 μl total volume.

[2] = molecular target: T1, APP-Avi-soluble human LOX-1(61-273); experiment: SET, IgG vs soluble human LOX-1
Description: Affinity determination for anti-LOX-1 IgGs using Solution Equilibrium Titration (SET) was basically performed as described in the literature (Friguet et al., 1985 J Immunol Methods 77: 305-319). The assays were performed in a 96-well polypropylene plate (Thermo Scientific, Catalog no. AB-1127) using a constant concentration of LOX-1 antibody mixed with different concentrations of non-biotinylated human or cynomolgus monkey LOX-1 protein and incubated at 22° C. for 14 hours with constant shaking (300 rpm).
On a pre-blocked MSD plate (Meso Scale Discovery, catalog no. L21SA) biotinylated human or cynomolgus monkey soluble LOX-1 protein was immobilized and washed afterwards. The equilibrium binding reactions were then applied to the MSD plate with immobilized LOX-1 and incubated for 30 min. The unbound material was removed by washing the plate, and the captured antibody was detected by adding Sulfo-tagged goat anti-human IgG (Meso Scale Discovery, catalog no. R3AJ-1). After incubation and washing 1×MSD read buffer T(Meso Scale Discovery, catalog no. R92TC-2) was added and the plate was developed using a Sector Imager 6000 (Meso Scale Discovery). The data were transferred to Excel for analysis and plotted using GraphPad Prism v5. The KD values were determined by fitting the data to the following equation: […]

IC50 [1] [nM] | Kd [2] [nM] | Binder
5 | 0.0002 | MOR020144 (antibody, human IgG1, lambda, L234A L235A, V domains shown, also called MOR20144) VH: QVQLLESGGGLVQPGGSLRLSCAASGFTFSDYALHWVRQAPGKGLEWVSVISYSGGYTYYADSVKGRFTISRDNSKNTLYLQMNSLRAEDTAVYYCARSPGLTSYHDSWGQGTLVTVSS VL: DIVLTQPPSVSGAPGQRVTISCSGSSSNIGSNYVSWYQQLPGTAPKLLIHSNSHRPSGVPDRFSGSKSGTSASLAITGLQAEDEADYYCQSWDYESERVVFGGGTKLTVLG
9 | 6.5 | MOR020148 (antibody, human IgG1, lambda, L234A L235A, V domains shown, also called MOR20148) VH: QVQLLESGGGLVQSGGSLRLSCAASGFTFRSGAAMHWVRQAPGKGLEWVSGISSFSSSTDYADSVKGRFTISRDNSKNTLYLQMNSLRAEDTAVYYCARNFKYAMDYWGQGTLVTVSS VL: DIALTQPASVSGSPGQSITISCTGTSSDVGSINYVSWYQQHPGKAPKMIYAVSYRPSGVSNRFSGSKSGNTASLTISGLQAEDEADYYCQVWDWRSDSRVFGGGTKLTVLG
7 | 0.27 | MOR020151 (antibody, human IgG1, lambda, L234A L235A, V domains shown, also called MOR20151) VH: QVQLVESGGGLVKPGGSLRLSCAASGFTFSSYALSWVRQAPGKGLEWVGRIKSKTMGGTSDYAAPVKGRFTISRDDSKNTLYLQMNSLKTEDTAVYYCARDFWADHYYYFDYWGQGTLVTVSS VL: DIALTQPASVSGSPGQSITISCTGTSSDVGYINYVNWYQQHPGKAPKLMIYEVSNRPSGVSNRFSGSKSGNTASLTISGLQAEDEADYYCASWDWYDNVVFGGGTKLTVLG
12 | 0.5 | MOR020052 (antibody, human IgG1, lambda, L234A L235A, V domains shown, also called MOR20052) VH: QVQLVQSGAEVKKPGSSVKVSCKASGGTFSDYAISWVRQAPGQGLEWMGGIIPGFGQANYAQKFQGRVTITADESTSTAYMELSSLRSEDTAVYYCAREPSPLYGPYSDYVMDPWGQGTLVTVSS VL: DIALTQPASVSGSPGQSITISCTGTSSDVGYFNFVSWYQQHPGKAPKLMIYDVSNRPSGVSNRFSGSKSGNTASLTISGLQAEDEADYYCASYGWDSSWVFGGGTKLTVLG
5 | 0.0014 | MOR020152 (antibody, human IgG1, lambda, L234A L235A, V domains shown, also called MOR20152) VH: QVQLVQSGAEVKKPGSSVKVSCKASGGTFSSYAISWVRQAPGQGLEWMGRIIPIFGGANYAQKFQGRVTITADESTSTAYMELSSLRSEDTAVYYCARDPLYRSDYYYHWFDFWGQGTLVTVSS VL: DIALTQPASVSGSPGQSITISCTGTSSDVGNFNYVSWYQQHPGKAPKLMIYGVNNRPSGVSNRFSGSKSGNTASLTISGLQAEDEADYYCAAYGWALDEVVFGGGTKLTVLG
 | 0.0003 | MOR021455 (antibody, V domains shown, IgG (human IgG1f LALA); parent MOR20152 with the printed HCDR2 stretch exchanged) VH: QVQLVQSGAEVKKPGSSVKVSCKASGGTFSSYAISWVRQAPGQGLEWMGRIIPQWAGTPEYAQKFQGRVTITADESTSTAYMELSSLRSEDTAVYYCARDPLYRSDYYYHWFDFWGQGTLVTVSS VL: DIALTQPASVSGSPGQSITISCTGTSSDVGNFNYVSWYQQHPGKAPKLMIYGVNNRPSGVSNRFSGSKSGNTASLTISGLQAEDEADYYCAAYGWALDEVVFGGGTKLTVLG
6 | 0.144 | MOR020133 (antibody, human IgG1, lambda, L234A L235A, V domains shown, also called MOR20133) VH: QVQLVQSGAEVKKPGESLKISCKGSGYSFTNYWIAWVRQMPGKGLEWMGRIFPGDSTTTYSPSFQGQVTISADKSISTAYLQWSSLKASDTAMYYCARGKRGATHPTQYEGWEVYGFDPWGQGTLVTVSS VL: DIELTQPPSVSVSPGQTASITCSGDALGGKYASWYQQKPGQAPVLVIYDDNKRPSGIPERFSGSNSGNTATLTISGTQAEDEADYYCQSWAFYSGVFGGGTKLTVLG
5 | 0.56 | MOR020159 (antibody, human IgG1, kappa, L234A L235A, V domains shown, also called MOR20159) VH: QVQLVQSGAEVKKPGSSVKVSCKASGGTFSDYAISWVRQAPGQGLEWMGGIVPIVGTANYAQKFQGRVTITADESTSTAYMELSSLRSEDTAVYYCARDSSTSYYYYFDYWGQGTLVTVSS VL: DIQMTQSPSSLSASVGDRVTITCRASQDINSWLAWYQQKPGKAPKLLIYQASNLQSGVPSRFSGSGSGTDFTLTISSLQPEDFATYYCQQIDHTPFTFGQGTKVEIKR
